Measured values taken from patent US12630600B2 (MEDIMMUNE LIMITED, priority 2022, dated 2026).
Starred links: 1 amine or outer side, 2 acyl side, 3 side chain; linkers in the order of their positions; H or OH if unused. Non-standard residues stand in square brackets, D forms with d. Groups on a side chain read outwards from the residue. No end group written: not given here. *: point of attachment. C20 diacid = O=C(O)CCCCCCCCCCCCCCCCCCC(=O)*; C18 diacid = O=C(O)CCCCCCCCCCCCCCCCC(=O)*; γGlu = O=C(O)[C@H](CCC(=O)[*:2])N[*:1]; αMeF = C[C@](N)(Cc1ccccc1)C(=O)O; AEEA = NCCOCCOCC(=O)O; Aib = CC(C)(N)C(=O)O

Key:
[1] = biological target: human glucagon receptor (human, UniProt P47871); experiment: cell-based or functional assay
[2] = biological target: human GLP-1 receptor (human, UniProt P43220); experiment: cell-based or functional assay

| Binder | cAMP production EC50 [1] | cAMP production EC50 [2] |
| --- | --- | --- |
| H[Aib]QGTFTSDVSK[αMeF]LDTK([AEEA-AEEA-γGlu-C20 diacid])RAQDFVRWLLR[Aib]K-NH2 (N-terminus assumed; SMILES CC(C)C[C@H](NC(=O)[C@H](Cc1c[nH]c2ccccc12)NC(=O)[C@H](CCCNC(=N)N)NC(=O)[C@@H](NC(=O)[C@H](Cc1ccccc1)NC(=O)[C@H](CC(=O)O)NC(=O)[C@H](CCC(N)=O)NC(=O)[C@H](C)NC(=O)[C@H](CCCNC(=N)N)NC(=O)[C@H](CCCCNC(=O)COCCOCCNC(=O)COCCOCCNC(=O)CC[C@H](NC(=O)CCCCCCCCCCCCCCCCCCC(=O)O)C(=O)O)NC(=O)[C@@H](NC(=O)[C@H](CC(=O)O)NC(=O)[C@H](CC(C)C)NC(=O)[C@](C)(Cc1ccccc1)NC(=O)[C@H](CCCCN)NC(=O)[C@H](CO)NC(=O)[C@@H](NC(=O)[C@H](CC(=O)O)NC(=O)[C@H](CO)NC(=O)[C@@H](NC(=O)[C@H](Cc1ccccc1)NC(=O)[C@@H](NC(=O)CNC(=O)[C@H](CCC(N)=O)NC(=O)C(C)(C)NC(=O)[C@@H](N)Cc1c[nH]cn1)[C@@H](C)O)[C@@H](C)O)C(C)C)[C@@H](C)O)C(C)C)C(=O)N[C@@H](CC(C)C)C(=O)N[C@@H](CCCNC(=N)N)C(=O)NC(C)(C)C(=O)N[C@@H](CCCCN)C(N)=O) [Peptide 496] | 482 pM | 64.9 pM |
| H[Aib]QGTFTSDVSK[αMeF]LDTK([AEEA-AEEA-γGlu-C18 diacid])RAQDFVRWLLR[Aib]A-OH (N-terminus assumed; SMILES CC(C)C[C@H](NC(=O)[C@H](Cc1c[nH]c2ccccc12)NC(=O)[C@H](CCCNC(=N)N)NC(=O)[C@@H](NC(=O)[C@H](Cc1ccccc1)NC(=O)[C@H](CC(=O)O)NC(=O)[C@H](CCC(N)=O)NC(=O)[C@H](C)NC(=O)[C@H](CCCNC(=N)N)NC(=O)[C@H](CCCCNC(=O)COCCOCCNC(=O)COCCOCCNC(=O)CC[C@H](NC(=O)CCCCCCCCCCCCCCCCC(=O)O)C(=O)O)NC(=O)[C@@H](NC(=O)[C@H](CC(=O)O)NC(=O)[C@H](CC(C)C)NC(=O)[C@](C)(Cc1ccccc1)NC(=O)[C@H](CCCCN)NC(=O)[C@H](CO)NC(=O)[C@@H](NC(=O)[C@H](CC(=O)O)NC(=O)[C@H](CO)NC(=O)[C@@H](NC(=O)[C@H](Cc1ccccc1)NC(=O)[C@@H](NC(=O)CNC(=O)[C@H](CCC(N)=O)NC(=O)C(C)(C)NC(=O)[C@@H](N)Cc1c[nH]cn1)[C@@H](C)O)[C@@H](C)O)C(C)C)[C@@H](C)O)C(C)C)C(=O)N[C@@H](CC(C)C)C(=O)N[C@@H](CCCNC(=N)N)C(=O)NC(C)(C)C(=O)N[C@@H](C)C(=O)O) [Peptide 497] | 118 pM | 37.4 pM |
| H[Aib]QGTFTSDVSK[αMeF]LDTK([AEEA-AEEA-γGlu-C20 diacid])RAQDFVRWLLE[Aib]K-OH [Peptide 503] | 84.9 pM | 81.2 pM |
| H[Aib]QGTFTSDVSK[αMeF]LDTK([AEEA-AEEA-γGlu-C18 diacid])RAQDFVQWLLR[Aib]A-OH (N-terminus assumed; SMILES CC(C)C[C@H](NC(=O)[C@H](Cc1c[nH]c2ccccc12)NC(=O)[C@H](CCC(N)=O)NC(=O)[C@@H](NC(=O)[C@H](Cc1ccccc1)NC(=O)[C@H](CC(=O)O)NC(=O)[C@H](CCC(N)=O)NC(=O)[C@H](C)NC(=O)[C@H](CCCNC(=N)N)NC(=O)[C@H](CCCCNC(=O)COCCOCCNC(=O)COCCOCCNC(=O)CC[C@H](NC(=O)CCCCCCCCCCCCCCCCC(=O)O)C(=O)O)NC(=O)[C@@H](NC(=O)[C@H](CC(=O)O)NC(=O)[C@H](CC(C)C)NC(=O)[C@](C)(Cc1ccccc1)NC(=O)[C@H](CCCCN)NC(=O)[C@H](CO)NC(=O)[C@@H](NC(=O)[C@H](CC(=O)O)NC(=O)[C@H](CO)NC(=O)[C@@H](NC(=O)[C@H](Cc1ccccc1)NC(=O)[C@@H](NC(=O)CNC(=O)[C@H](CCC(N)=O)NC(=O)C(C)(C)NC(=O)[C@@H](N)Cc1c[nH]cn1)[C@@H](C)O)[C@@H](C)O)C(C)C)[C@@H](C)O)C(C)C)C(=O)N[C@@H](CC(C)C)C(=O)N[C@@H](CCCNC(=N)N)C(=O)NC(C)(C)C(=O)N[C@@H](C)C(=O)O) [Peptide 499] | 78.8 pM | 40.6 pM |
| H[Aib]QGTFTSDVSK[αMeF]LDTK([AEEA-AEEA-γGlu-C20 diacid])RAQDFVQWLLR[Aib]A-OH (N-terminus assumed; SMILES CC(C)C[C@H](NC(=O)[C@H](Cc1c[nH]c2ccccc12)NC(=O)[C@H](CCC(N)=O)NC(=O)[C@@H](NC(=O)[C@H](Cc1ccccc1)NC(=O)[C@H](CC(=O)O)NC(=O)[C@H](CCC(N)=O)NC(=O)[C@H](C)NC(=O)[C@H](CCCNC(=N)N)NC(=O)[C@H](CCCCNC(=O)COCCOCCNC(=O)COCCOCCNC(=O)CC[C@H](NC(=O)CCCCCCCCCCCCCCCCCCC(=O)O)C(=O)O)NC(=O)[C@@H](NC(=O)[C@H](CC(=O)O)NC(=O)[C@H](CC(C)C)NC(=O)[C@](C)(Cc1ccccc1)NC(=O)[C@H](CCCCN)NC(=O)[C@H](CO)NC(=O)[C@@H](NC(=O)[C@H](CC(=O)O)NC(=O)[C@H](CO)NC(=O)[C@@H](NC(=O)[C@H](Cc1ccccc1)NC(=O)[C@@H](NC(=O)CNC(=O)[C@H](CCC(N)=O)NC(=O)C(C)(C)NC(=O)[C@@H](N)Cc1c[nH]cn1)[C@@H](C)O)[C@@H](C)O)C(C)C)[C@@H](C)O)C(C)C)C(=O)N[C@@H](CC(C)C)C(=O)N[C@@H](CCCNC(=N)N)C(=O)NC(C)(C)C(=O)N[C@@H](C)C(=O)O) [Peptide 500] | 101 pM | 102 pM |
| H[Aib]QGTFTSDVSK[αMeF]LDTK([AEEA-AEEA-γGlu-C18 diacid])RARDFVQWLLR[Aib]A-OH (N-terminus assumed; SMILES CC(C)C[C@H](NC(=O)[C@H](Cc1c[nH]c2ccccc12)NC(=O)[C@H](CCC(N)=O)NC(=O)[C@@H](NC(=O)[C@H](Cc1ccccc1)NC(=O)[C@H](CC(=O)O)NC(=O)[C@H](CCCNC(=N)N)NC(=O)[C@H](C)NC(=O)[C@H](CCCNC(=N)N)NC(=O)[C@H](CCCCNC(=O)COCCOCCNC(=O)COCCOCCNC(=O)CC[C@H](NC(=O)CCCCCCCCCCCCCCCCC(=O)O)C(=O)O)NC(=O)[C@@H](NC(=O)[C@H](CC(=O)O)NC(=O)[C@H](CC(C)C)NC(=O)[C@](C)(Cc1ccccc1)NC(=O)[C@H](CCCCN)NC(=O)[C@H](CO)NC(=O)[C@@H](NC(=O)[C@H](CC(=O)O)NC(=O)[C@H](CO)NC(=O)[C@@H](NC(=O)[C@H](Cc1ccccc1)NC(=O)[C@@H](NC(=O)CNC(=O)[C@H](CCC(N)=O)NC(=O)C(C)(C)NC(=O)[C@@H](N)Cc1c[nH]cn1)[C@@H](C)O)[C@@H](C)O)C(C)C)[C@@H](C)O)C(C)C)C(=O)N[C@@H](CC(C)C)C(=O)N[C@@H](CCCNC(=N)N)C(=O)NC(C)(C)C(=O)N[C@@H](C)C(=O)O) [Peptide 501] | 75.6 pM | 26.5 pM |
| H[Aib]QGTFTSDVSK[αMeF]LDTK([AEEA-AEEA-γGlu-C20 diacid])RAQDFVRWLLR[Aib]A-OH (N-terminus assumed; SMILES CC(C)C[C@H](NC(=O)[C@H](Cc1c[nH]c2ccccc12)NC(=O)[C@H](CCCNC(=N)N)NC(=O)[C@@H](NC(=O)[C@H](Cc1ccccc1)NC(=O)[C@H](CC(=O)O)NC(=O)[C@H](CCC(N)=O)NC(=O)[C@H](C)NC(=O)[C@H](CCCNC(=N)N)NC(=O)[C@H](CCCCNC(=O)COCCOCCNC(=O)COCCOCCNC(=O)CC[C@H](NC(=O)CCCCCCCCCCCCCCCCCCC(=O)O)C(=O)O)NC(=O)[C@@H](NC(=O)[C@H](CC(=O)O)NC(=O)[C@H](CC(C)C)NC(=O)[C@](C)(Cc1ccccc1)NC(=O)[C@H](CCCCN)NC(=O)[C@H](CO)NC(=O)[C@@H](NC(=O)[C@H](CC(=O)O)NC(=O)[C@H](CO)NC(=O)[C@@H](NC(=O)[C@H](Cc1ccccc1)NC(=O)[C@@H](NC(=O)CNC(=O)[C@H](CCC(N)=O)NC(=O)C(C)(C)NC(=O)[C@@H](N)Cc1c[nH]cn1)[C@@H](C)O)[C@@H](C)O)C(C)C)[C@@H](C)O)C(C)C)C(=O)N[C@@H](CC(C)C)C(=O)N[C@@H](CCCNC(=N)N)C(=O)NC(C)(C)C(=O)N[C@@H](C)C(=O)O) [Peptide 498] | 170 pM | 156 pM |
| H[Aib]QGTFTSDVSK[αMeF]LDTK([AEEA-AEEA-γGlu-C20 diacid])RARDFVQWLLR[Aib]A-OH (N-terminus assumed; SMILES CC(C)C[C@H](NC(=O)[C@H](Cc1c[nH]c2ccccc12)NC(=O)[C@H](CCC(N)=O)NC(=O)[C@@H](NC(=O)[C@H](Cc1ccccc1)NC(=O)[C@H](CC(=O)O)NC(=O)[C@H](CCCNC(=N)N)NC(=O)[C@H](C)NC(=O)[C@H](CCCNC(=N)N)NC(=O)[C@H](CCCCNC(=O)COCCOCCNC(=O)COCCOCCNC(=O)CC[C@H](NC(=O)CCCCCCCCCCCCCCCCCCC(=O)O)C(=O)O)NC(=O)[C@@H](NC(=O)[C@H](CC(=O)O)NC(=O)[C@H](CC(C)C)NC(=O)[C@](C)(Cc1ccccc1)NC(=O)[C@H](CCCCN)NC(=O)[C@H](CO)NC(=O)[C@@H](NC(=O)[C@H](CC(=O)O)NC(=O)[C@H](CO)NC(=O)[C@@H](NC(=O)[C@H](Cc1ccccc1)NC(=O)[C@@H](NC(=O)CNC(=O)[C@H](CCC(N)=O)NC(=O)C(C)(C)NC(=O)[C@@H](N)Cc1c[nH]cn1)[C@@H](C)O)[C@@H](C)O)C(C)C)[C@@H](C)O)C(C)C)C(=O)N[C@@H](CC(C)C)C(=O)N[C@@H](CCCNC(=N)N)C(=O)NC(C)(C)C(=O)N[C@@H](C)C(=O)O) [Peptide 502] | 175 pM | 82.1 pM |
